This note sets out measurements from patent US20190091326A1.

Broadly, the EC50 is the concentration needed to bring the measured effect to its halfway point. Low values mean an effect from little substance, high ones a need for much substance.

The target in one test is ZM197 V1/V2 wt (293). Kind of test: ELISA; table row ZM197 V1/V2 wt, column 293.
The target of test [1] is A244 V1/V2 scaffold, engineered, gD-tagged, produced in normal 293 HEK cells (herpes simplex virus 1; HIV-1 isolate A244) (UniProt Q69091). Kind of test: ELISA; table row A244 V1/V2.eng1*, column 293. (In general: ELISA stands for enzyme-linked immunosorbent assay.)
In test [2] the target is ZM233 V1/V2 scaffold, wildtype, gD-tagged, produced in GnTI- 293 HEK cells (herpes simplex virus 1; HIV-1 isolate ZM233). Put plainly: ELISA; table row ZM233 V1/V2 wt, GnTI-.
A further test has as its target Bal.01 V1/V2 wt (GnTI-). Kind of test: ELISA; table row Bal.01 V1/V2 wt, GnTI-.
A further test addresses A244 V1/V2.eng1 (GnTI-). Kind of test: ELISA; table row A244 V1/V2.eng1*, GnTI-.
The target in test [3] is ZM233 V1/V2 scaffold, engineered, gD-tagged, produced in GnTI- 293 HEK cells (herpes simplex virus 1; HIV-1 isolate ZM233). Put plainly: ELISA; table row ZM233 V1/V2.eng1*, GnTI-.
Test [4] has as its target 108060-I169K V1/V2 scaffold, gD-tagged, produced in GnTI- 293 HEK cells (herpes simplex virus 1; HIV-1 isolate 108060). Put plainly: ELISA; table row 108060 V1/V2 I169K, GnTI-.
In test [5] the target is 108060 I169K/E172V/T161M/N156I/S164P/L165G V1/V2 scaffold, gD-tagged, produced in GnTI- 293 HEK cells (herpes simplex virus 1; HIV-1 isolate 108060). Put plainly: ELISA; table row 108060 V1/V2.eng2**, GnTI-.
Test [6] has as its target A244 V1/V2 scaffold, wildtype, gD-tagged, produced in normal 293 HEK cells (herpes simplex virus 1; HIV-1 isolate A244) (UniProt Q69091). Put plainly: capture ELISA on 34.1 anti-gD; scaffold made in 293 cells.
The target of test [7] is ZM233 V1/V2 scaffold, engineered, gD-tagged, produced in normal 293 HEK cells (herpes simplex virus 1; HIV-1 isolate ZM233). Kind of test: capture ELISA on 34.1 anti-gD; scaffold made in 293F cells.
The target in test [8] is 108060 I169K/E172V/T161M/N156I/S164G/D167G V1/V2 scaffold, gD-tagged, produced in normal 293 HEK cells (herpes simplex virus 1; HIV-1 isolate 108060). Put plainly: capture ELISA on 34.1 anti-gD; purified scaffold made in 293 cells.
Test [9] concerns the target A244 V1/V2 scaffold, engineered, gD-tagged, produced in normal 293 HEK cells (herpes simplex virus 1; HIV-1 isolate A244) (UniProt Q69091). The test is described as above.
Test [10] addresses JRFL-E168K V1/V2 scaffold, engineered, gD-tagged, produced in normal 293 HEK cells (herpes simplex virus 1; HIV-1 isolate JRFL). Described as above.
Test [11] has as its target MN V1/V2 scaffold, engineered, gD-tagged, produced in normal 293 HEK cells (herpes simplex virus 1; HIV-1 isolate MN). The description is as above.
The target in test [12] is ZM233 V1/V2 scaffold, engineered, gD-tagged, produced in normal 293 HEK cells (herpes simplex virus 1; HIV-1 isolate ZM233). Described as above.
Test [13] has as its target A244-rgp120 grown in GnTI- cells (HIV-1 isolate A244). Kind of test: ELISA, mAb titrated on gp120, absorbance 492 nm; curve 495 (A244 gp120 GNTI-).

For PG9 monoclonal antibody, the EC50 with ZM197 V1/V2 wt (293) is 2.74 µg/mL; in [1], 0.099 µg/mL; in test [2] it was 0.00951 µg/mL; with Bal.01 V1/V2 wt (GnTI-) it was 0.0802 µg/mL; with A244 V1/V2.eng1 (GnTI-) it was 0.00406 µg/mL; in [3], 0.0085 µg/mL. In addition, the half-maximal effective concentration (EC50) was determined as 0.679 µg/mL in test [4]; 0.00834 µg/mL in test [5]; 0.893 µg/mL in [6]; 0.002 µg/mL in test [7]; 0.093 µg/mL in test [8]; 0.0991 µg/mL in test [9]. Also, the EC50 is 0.0473 µg/mL in test [10], 0.0274 µg/mL in test [11], 0.00227 µg/mL in [12] and 0.02 µg/mL in test [13].
